Reference: patent US20020115606A1 (MYRIAD GENETICS, published 2002)

Legend:
[1] = molecular target: Focal adhesion kinase (FAK) amino acids 724-1052 (yeast, UniProt P04386 1-147; Q05397 724-1052); assay: yeast two-hybrid
Description: (§1) The principles and methods of the yeast two-hybrid systems have been described in detail (Bartel and Fields, 1997). The following is thus a description of the particular procedure that was used, which was applied to all proteins.
(§2) The cDNA encoding the bait protein was generated by PCR from brain cDNA. Gene-specific primers were synthesized with appropriate tails added at their 5′ ends to allow recombination into the vector pGBTQ. The tail for the forward primer was 5′-[…]-3′ (SEQ ID NO: 1) and the tail for the reverse primer was 5′-[…]-3′ (SEQ ID NO:2). […] The new construct was selected directly in the yeast J693 for its ability to drive tryptophane synthesis (genotype of this strain: Mat α, ade2, his3, leu2, trp1, URA3::GAL1-lacZ LYS2::GAL1-HIS3 gal4del gal80del cyhR2). In these yeast cells, the bait is produced as a C-terminal fusion protein with the DNA binding domain of the transcription factor Gal4 (amino acids 1 to 147). A total human brain (person) cDNA library cloned into the yeast expression vector pACT2 was purchased from Clontech (human brain […] cDNA, cat. # HL4004AH), transformed into the yeast strain J692 (genotype of this strain: Mat α, ade2, his3, leu2, trp1, URA3::GAL1-lacZ LYS2::GAL1-HIS3 gal4del gal80del cyhR2), and selected for the ability to drive leucine synthesis. In these yeast cells, each cDNA is expressed as a fusion protein with the transcription activation domain of the transcription factor Gal4 (amino acids 768 to 881) and a 9 amino acid hemagglutinin epitope tag. J693 cells […] expressing the bait were then mated with J692 cells […] expressing proteins from the brain library. The resulting diploid yeast cells expressing proteins interacting with the bait protein were selected for the ability to synthesize tryptophane, leucine, histidine, and β-galactosidase.

[2] = molecular target: transthyretin (TTH) amino acids 7-148 (yeast; human, UniProt P04386 768-881; P02766 7-147); assay: yeast two-hybrid
Description: as §1, §2

[3] = molecular target: T1, glutamine synthase (GS) amino acids 49-212 (yeast; human, UniProt P04386 768-881; P15104 49-212); assay: yeast two-hybrid
T1 construct: also called glutamine synthetase; glutamate ammonia ligase
Description: as §1, §2

[4] = molecular target: T2, Mint1 amino acids 447-758 (yeast, UniProt P04386 1-147; Q02410 447-758); assay: yeast two-hybrid
T2 construct: also called X11 alpha
Description: as §1, §2

CIB amino acids 1-191 = CIB amino acids 1-191 (yeast, UniProt P04386 1-147; Q99828 1-191); assay: yeast two-hybrid, Gal4, human brain cDNA library
[5] = molecular target: T3, PN7740 amino acids 27-322 (yeast; human, UniProt P04386 768-881); assay: yeast two-hybrid
T3 construct: also called novel phosphatase
T3 sequence: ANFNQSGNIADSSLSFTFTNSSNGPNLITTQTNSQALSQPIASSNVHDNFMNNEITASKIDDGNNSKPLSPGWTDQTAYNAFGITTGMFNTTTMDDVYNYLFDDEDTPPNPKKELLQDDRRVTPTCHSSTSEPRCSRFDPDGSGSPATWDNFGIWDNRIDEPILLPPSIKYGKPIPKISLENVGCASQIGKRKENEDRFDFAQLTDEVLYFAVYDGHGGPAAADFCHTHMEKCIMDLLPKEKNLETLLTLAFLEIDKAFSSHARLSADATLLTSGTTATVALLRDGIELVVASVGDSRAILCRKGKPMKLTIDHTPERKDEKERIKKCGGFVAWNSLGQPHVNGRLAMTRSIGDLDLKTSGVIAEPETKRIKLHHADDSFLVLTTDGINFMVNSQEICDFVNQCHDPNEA
Description: as §1, §2

B1: casein kinase II (CK2) amino acids 264-351 (other, yeast;human, UniProt P04386 768-881, looked up, not shown: small tags and cut ends)
chain: ANFNQSGNIADSSLSFTFTNSSNGPNLITTQTNSQALSQPIASSNVHDNFMNNEITASKIDDGNNSKPLSPGWTDQTAYNAFGITTGMFNTTTMDDVYNYLFDDEDTPPNPKKEIDLDPHFNDILGQHSRKRWENFIHSENRHLVSPEALDLLDKLLRYDHQQRLTAKEAMEHPYFYPVVKEQSQPCADNAVLSSGLTAAR
B1: binds [1].

B2: BAT3 (HLA-B associated transcript) amino acids 740-1040 (other, UniProt P04386 1-147, looked up)
chain: MKLLSSIEQACDICRLKKLKCSKEKPKCAKCLKNNWECRYSPKTKRSPLTRAHLTEVESRLERLEQLFLLIFPREDLDMILKMDSLQDIKALLTGLFVQDNVNKDAVTDRLASVETDMPLTLRQHRISATSSSEESSNKGQRQLTVSFEPGADGALGFFGALLSLLCQNFSMVDVVMLLHGHFQPLQRLQPQLRSFFHQHYLGGQEPTPSNIRMATHTLITGLEEYVRESFSLVQVQPGVDIIRTNLEFLQEQFNSIAAHVLHCTDSGFGARLLELCNQGLFECLALNLHCLGGQQMELAAVINGRIRRMSRGVNPSLVSWLTTMMGLRLQVVLEHMPVGPDAILRYVRRVGDPPQPLPEEPMEVQGAERASPEPQRENASPAPGTTAEEAMSRGPPPAPEGGSRDEQDGASAETEPWAAAVPPEWVPIIQQDIQSQRKVKPQPPLSD
B2: binds [2].

B3: Mint1 amino acids 739-837 (other, UniProt P04386 1-147, looked up)
chain: MKLLSSIEQACDICRLKKLKCSKEKPKCAKCLKNNWECRYSPKTKRSPLTRAHLTEVESRLERLEQLFLLIFPREDLDMILKMDSLQDIKALLTGLFVQDNVNKDAVTDRLASVETDMPLTLRQHRISATSSSEESSNKGQRQLTVSIVRCPPVTTVLIRRPDLRYQLGFSVQNGIICSLMRGGIAERGGVRVGHRIIEINGQSVVATPHEKIVHILSNAVGEIHMKTMPAAMYRLLTAQEQPVYI
notes: also called X11 alpha
B3: binds [3].

B4: KIAA0427 amino acids 364-589 (other, yeast;human, UniProt P04386 768-881, looked up, not shown: small tags and cut ends)
chain: ANFNQSGNIADSSLSFTFTNSSNGPNLITTQTNSQALSQPIASSNVHDNFMNNEITASKIDDGNNSKPLSPGWTDQTAYNAFGITTGMFNTTTMDDVYNYLFDDEDTPPNPKKETTTPQQNKMDKLIEILNSMRNNSSDVDTKLTTFMEEAQNSTNSEEMLGEIVRTIYQKAVSDRSFAFTAAKLCDKMALFMVEGTKFRSLLLNMLQKDFTVREELQQQDVERWLGFITFLCEVFGTMRSSTGEPFRVLVCPIYTCLRELLQSQDVKEDAVLCCSMELQSTGRLLEEQLPEMMTELLASARDKMLCPSESMLTRSLLLEVIELHANSWNPLTPPITQYY
B4: binds [4].

B5: glutathione-S-transferase M3 (GST trans. M3) amino acids 15-226 (other, yeast;human, UniProt P04386 768-881, looked up, not shown: small tags and cut ends)
chain: ANFNQSGNIADSSLSFTFTNSSNGPNLITTQTNSQALSQPIASSNVHDNFMNNEITASKIDDGNNSKPLSPGWTDQTAYNAFGITTGMFNTTTMDDVYNYLFDDEDTPPNPKKERGLAHAIRLLLEFTDTSYEEKRYTCGEAPDYDRSQWLDVKFKLDLDFPNLPYLLDGKNKITQSNAILRYIARKHNMCGETEEEKIRVDIIENQVMDFRTQLIRLCYSSDHEKLKPQYLEELPGQLKQFSMFLGKFSWFAGEKLTFVDFLTYDILDQNRIFDPKCLDEFPNLKAFMCRFEALEKIAAYLQSDQFCKMPINNKMAQWGNKPVC
B5: binds [1].

B6: stearoyl CoA desaturase (SCD2) amino acids 320-359 (other)
chain: ANFNQSGNIADSSLSFTFTNSSNGPNLITTQTNSQALSQPIASSNVHDNFMNNEITASKIDDGNNSKPLSPGWTDQTAYNAFGITTGMFNTTTMDDVYNYLFDDEDTPPNPKKETTFFIDCMAALGLAYDRKKVSKAAILARIKRTGDGNYKSG
notes: range 768-881;range 320-359; also called Delta(9) desaturase
B6: binds (CIB amino acids 1-191).

B7: Fe65 amino acids 360-552 (first phosphotyrosine binding domain, PTB) (other, UniProt P04386 1-147, looked up)
chain: MKLLSSIEQACDICRLKKLKCSKEKPKCAKCLKNNWECRYSPKTKRSPLTRAHLTEVESRLERLEQLFLLIFPREDLDMILKMDSLQDIKALLTGLFVQDNVNKDAVTDRLASVETDMPLTLRQHRISATSSSEESSNKGQRQLTVSPRNTNPGIKCFAVRSLGWVEMTEEELAPGRSSVAVNNCIRQLSYHKNNLHDPMSGGWGEGKDLLLQLEDETLKLVEPQSQALLHAQPIISIRVWGVGRDSGRERDFAYVARDKLTQMLKCHVFRCEAPAKNIATSLHEICSKIMAERRNARCLVNGLSLDHSKLVDVPFQVEFPAPKNELVQKFQVYYLGNVP
B7: binds [5].
